This is an account of results in the DeepSol protein solubility set.

A short description of this series: soluble on expression in E. coli; label from the status in PepcDB or PDB records.
Consider “MPTKGRVFVLGHSQDKDCVSRETGRRTTSITVPRDKCGVETVQHGKGAGYTSSVNIVISFHDKFLTKVDRAYNITCLYAPTGDVVSYALTVQPSLLKDIQVLAEQPSCEYEVFDVRTRRPAEIVHVNAPLEHVWTCDGTNLDLFCMTVHDCVINEGKSKRRSKIIDSEGCSLDTTRLPNLRYENNKLSARVMSKAFRFGDDVAVEFECNVRLDLRNGTSCPRPRC”, for which the “soluble on expression in E. coli” value is on record as “not soluble”.
For “MAHHHHHHMGRASKDKRDIYYRKAKEEGYRARSAYKLLQLHEEFGILRREEIRTGVVDLCAAPGSWSQVLSNHLCGSQPGSAAEACEGDEAINSEASQRPRIVAVDLQEMMPIDGVQLLQGDITSEWTAREIIRLLNGDSSSVPECSDATALSTAGAINDFNNGRGNNVSEEGKSSQQRSDCGVGLMNERNNASECVDGDNNNNNSNNNDDRNGGDAGASTRPVAGRKADLVVCDGAPDVTGMHELDEYLQHHLLLAALNITTFVLRRGGTFVTKMFRGPNTPFLVAKAEVFFRQVTIAKPKSSRNASMEAFMVCQNYDPPASYQPSFERPLTQTTSCFTPAAPALHLAAVDAQRMSSDNVNNGELHHSGVTDIVDEAYAVESVIVPFLACGDLTGYDADMCYDRGESDVVLPPVQPPLQAPYIAISEAVKERTKRQRVG”, the “soluble on expression in E. coli” value is on record as “not soluble”.
Turning to “MSLSENEQFSQMEAKARARMKERGVEVSDIAELVFFLQKKYHPDLTIDECTLNVNRVLAKREVQNAILTGIELDVLAEQKKLSEPLQTMLEIDESLYGVDEVLAFSIVNIYGSIGFTNYGYIDKEKPGILKRLNDKSTGECHTFLDDIVGAISAAASSRLAHRARHTEEGGSHHHHHH”, the “soluble on expression in E. coli” value is listed as “soluble”.
Turning to “MNIFSKPDPKELERANKRELRKTNRDLESDRRQMDRREKELEQEIKKLAAKGHNDAARHLAKQLVQLRNQKTKSIGMSARISGVQAQNSHMQSMAKMGSAMGTTVKTMKAMNAQMPLEKVAANMREFQMAQEKMGLTEEMMNDTLDSILDAPGDADEQDAIVNQVLDEIGIEMNSKLANVPALPTKVSSTAPADFDDLEAQLARLRS”, the “soluble on expression in E. coli” value is listed as “not soluble”.
For “MSLVGNMNREALFKTLTTGYLHFWSLSRKKLWLKGETSGNFQIIEEFKVDCDADAVLFKVTSLGPICHTGNYTCFYRSYDELVNSKSEGHHHHHH”, the “soluble on expression in E. coli” value is listed as “not soluble”.
Turning to “MRIRLFAFCLLLGGCQSQLPPLPDWQSPEGRDDPQTGRIVELRSGVTLSPQQLVARLAAAPRVIVGEKHDNPDHHAVELWLAQALGEYRAQGSLLLEMLDPGQQPRVDAVRAQLGNGKPVANLEEALDWQKGWDWTQYGPLVSWAVAQPAPLLAANLQRSEIMRIYRERPPLPGTASRRDSVRLPLLAQIRESHCGMLPDDQLPAMLAVQQQRDRRMAERLRDAPRPAMLVAGSFHARRDLGVPVHLRDLGAEKGTQVLMLVEAGQAVTTREADYAWYTPAQPDKDYCAEMKKARLEHHHHHH”, the “soluble on expression in E. coli” value was “not soluble”.
Turning to “MANLQNMSSSPKHTNGSSERSENCGELCVVCGDKASGRHYGAVSCEGCKGFFKRSIRKRIGYVCRSQKDCPVTKFHRNRCQYCRLRKCLSMGMRSESVQAERRPVNNSSMLCNNDNNQQNTTPEHLSPNLLLSLVKLEHETKLGGLEALIKPGSPVMLQNTQDYMDVKRESIGEDEMTVIGLVPPSASPTSSGVGSSSSISDDSGPIYTSERARFEISVPLNTQNPRNHQYISEITTRLLFLTVHFVKDSRVSLRTSTMEGLLKSKWCDLYILALMQTADKIKLGQLLDNLTNQMAMGMECGQYSAEKFEKISEQMQRLLQLSQLFASRELTAVEYAYLKMISFTAQDLPSSMASPETRSVNQMASQELFEYVSSSKSTQNHMSNEHINVDDSTSEDNDTHVTSQQSSVNIAAERFSRILQLLPCLRWFDPATIVEIFFSGLIGPMSIETIIPFVLQMNLMSFFDQKMELGSGGASDTLSTSSLSEMMNNQ”, the “soluble on expression in E. coli” value is reported as “not soluble”.
As for “FHLTTRNGEPHMIVSRQEKGKSLLFKTEDGVNMCTLMAMDLGELCEDTITYKCPLLRQNEPEDIDCWCNSTSTWVTYGTCT”, the “soluble on expression in E. coli” value was “soluble”.
For “MKDKDLLVLAAKAADDKRAEDMVVLNMQGISPIADYFIICHGNSDKQVQAIAREIKAKAHEFQIDVQRMEGFDEARWVLVDLGDVVAHVFHKDERNHYNLERLWGDVPREDITEELGQLEHHHHHH”, the “soluble on expression in E. coli” value is “not soluble”.
As to “MKVGSQVIINTSHMKGMKGAEATVTGAYDTTAYVVSYTPTNGGQRVDHHKWVIQEEIKLEHHHHHH”, the “soluble on expression in E. coli” value is on record as “not soluble”.
With “MSLGNARMYEALRDYGDRFDTVGIFTFEVDETGTITETGTSISSMLPYIQKWPHIKWLLTIMNHGIANIFTALRNNENGAKDKFLTEIIRIMNKYPWCAGVDIDLERGGGYENKDAANALFRDIYNTVKSYDATKLVNICLPGMIGVQGSVGGENWCVYADLNDYCDTAAIMSYGMAWAGSAPGPVSPRDWLEGIYDYAVSVMSPDKIFMGLPAYGWNWRIHDTPENLGITYRGVSNTYYAAKYWMTGVYNFTGDAPPQPFIPIVAYWDDYNKVPWALPHVYDYMEGWDAVSWEYPLLKGVYNRRRYLTSYGKEQKAEFGTIYIDRNGVPDEYEGNVIITDEMTSLGDAQASAEYRFEIREAGYYDIAVQLCFPYWDKNAIIVSLDGISKTFSENEGHHHHHH”, the “soluble on expression in E. coli” value was “not soluble”.
In the case of “MSLSKPLYVFDLDDTLIDGDCAMIWNAFLAEKGIATERNFVEEDRRRMALYAQGKMDMAEYIAFAMQPLAQVPSTTVQDWVEECVSRWIVPKQFAQARELIAQLKQQGNTCLIISASVSFLVKTVAQRFGIEHALGIDLVSQNGCYSGNIEGVASYREGKVLRLQQWLAEQNETYHDVHFYTDSINDLPLCQHADFAYVVNPCPRLKAQAEQHGWPILSWAVEGHHHHHH”, the “soluble on expression in E. coli” value is reported as “soluble”.
As to “MGGSHHHHHHGMASALVKSRLNSWFQHRPPGASPERYLGLPGSLKWEDRGPSGQGQGQFLIQQVTLKIPISIEFVFESGSAQAGGNQALPRLAGSLLTQALESHAEGFRERFEKTFQLKEKGLSSGEQVLGQAALSGLLGGIGYFYGQGLVLPDIGVEGSEQKVDPALFPPVPLFTAVPSRSFFPRGFLWDEGFHQLVVQRWDPSLTREALGHWLGLLNADGWIGREQILGDEARARVPPEFLVQRAVHANPPTLLLPVAHMLEVGDPDDLAFLRKALPRLHAWFSWLHQSQAGPLPLSYRWRGRDPALPTLLNPKTLPSGLDDYPRASHPSVTERHLDLRCWVALGARVLTRLAEHLGEAEVAAELGPLAASLEAAESLDELHWAPELGVFADFGNHTKAVQLKPRPPQGLVRVVGRPQPQLQYVDALGYVSLFPLLLRLLDPTSSRLGPLLDILADSRHLWSPFGLRSLAASSSFYGQRNSEHDPPYWRGAVWLNVNYLALGALHHYGHLEGPHQARAAKLHGELRANVVGNVWRQYQATGFLWEQYSDRDGRGMGCRPFHGWTSLVLLAMAEDY”, the “soluble on expression in E. coli” value is recorded as “not soluble”.
Take “MSLMSSRVTIFTSCNDAYIYLLREGNSQAFPNAVGSKMVNLNTIPPKNGRDYYIALGLEGSANKLGVGIVKHPLLPKHANSDLSYDCEAEMLSNIRDTYVTPPGEGFLPRDTARHHRNWCIRLIKQALAEADIKSPTLDIDVICFTKGPGMGAPLHSVVIAARTCSLLWDVPLVGVNHCIGHIEMGREITKAQNPVVLYVSGGNTQVIAYSEKRYRIFGETLDIAIGNCLDRFARTLKIPNEPSPGYNIEQLAKKAPHKENLVELPYTVKGMDLSMSGILASIDLLAKDLFKGNKKNKILFDKTTGEQKVTVEDLCYSLQENLFAMLVEITERAMAHVNSNQVLIVGGVGCNVRLQEMMAQMCKDRANGQVHATDNRFCIDNGVMIAQAGLLEYRMGGIVKDFSETVVTQKFRTDEVYAAWRDEGHHHHHH”: the “soluble on expression in E. coli” value was “not soluble”.
With “MDAGDASRLGESLDAVSAAFQSRVMELQELVLARNMYPATAIPDLAAVDVSLTAMEAQLQAVRRRLQEEREAFPKAKKLVQQSLKQQRRLQLMLANMPTGMREDVFATPLEHNSSMMFPESLNFSSAVPEVRDHDLKIKEEPTAPPKKKGRGPAPRWYISTEELDSLSSYMRGRLTLEKVNIAINEVASYADGNAHLVACPKKKLSEDTWEKALELRDIAARESVKGRHFFLETDIKGPGLKLDTTGKAILTVRASTIMLYMLPLKLPYWIE”, the “soluble on expression in E. coli” value is “soluble”.
With “MRVVLAPMEGVLDYRMRDLLTQVGSYDLCVTEFIRVVDQVLPDRVFHRYCPELIDADVYGSCTKAGTPVRVQLLGQYPEYMAENAAKVIELGSSGIDLNFGCPSKTVNKSRGGSILLKDPENLYQIIKAVKEAVPSDTIVSAKIRLGYEDKTLAIENGQAVEAAGANELTIHARTKLEGYKPPAHWHWIAKVKNAINIPVIANGEIWNLEDAIKCREISGCTDLMVGRGALTIPNLGQVIKQESDNMPWLEVRAILSAYTEFETHGDKSKYYCNRIKQWLKYLKSHYKEADVLFDEIRRLKTAEGIRAAL”, the “soluble on expression in E. coli” value is on record as “not soluble”.
Next, “MSLKMRVYYEDTDAGGVVYHSNYLKFCERARSEIFFNKKVDIFDASKGHFLLAKANCNFLKPAKLGDMIEIKTKILEVKNASVEILQEIYKDEILLFKMELTLAFIKNEKPARMDMQLKKLFEELFEGGSHHHHHH”: “soluble”; “MTHLLETKNLSVSFGEHHVIKDVNLIVQKGKLISIIGPNGAGKTTLFNLLSGQISPTKGEVYFKGQEITKLSISDRTRLGIGRSFQLTNIFPELTVLENVRLSVQSFVQDYYSFFPSSAKFKQQVGEARRFLKTVLLQEKEHVLAKDLAHGEKRKLELAMLLALKTDVLLLDEPTAGISVEEVPAILQVIENIKKHPESTIVLIEHKMDMVLGLSDHLIVLFHGELLAEGMPEEIMKDERVQSAYLGGLYSGTITSE”: “not soluble”; “SWQSYVDDHLMCDVEGNHLTAAAILGQDGSVWAQSAKFPQLKPQEIDGIKKDFEEPGFLAPTGLFLGGEKYMVIQGEQGAVIRGKKGPGGVTIKKTNQALVFGFYDEPMTGGQCNLVVERLGDYLIESEL”: “soluble”.
Next, “MGSDKIHHHHHHMFKKIVLHGWRQFRNVDIDFHPRLTVLTGANGAGKTTLLNLVSRHFGWDGSFISTPVPRRSNPSLMYSTDFWDIDDIQVDIIHSFEREQNRKKQAAAQGSQTTIGKIIYGDGTETLITVPNSEVGSRYDVSIPARQRIDGLHIPSHRAPSTYQQVQNIPTIPRRRQEVFNQYLSLVQSRYLGSYTQWSPQYYMKETLISLATFGYGNAVVDADPESARLFEGFQEILRKMLPPKLRFKRLQIRVPEVILETETGNFSIDALSGGAAAVIDLAWQVFMYEPSESEFVVTLDEPENHLHPELQQRVLADLLTAFPSVQFVVATHSPFIVGSVPHSHVYVLGYDDSRRVNSTLLDTVNKTGTANEILRDVLGLEFTIPVWVENRLENLIEKYSKKDFTEDNLMMLRQEMTSLGLGKHVPQTISMLAQKKDGQ”: “not soluble”; “MADLPISLLQTLAYKQPLGRNSRIVHFTDGALFPVVAFGDNHSTSELYIAVRGDHRDLMSPDVRDSYALTGDDHKVWGATHHTYYVEGAPKKPLKFNVKTRTDLTILPVADVFWRADGSADVDVVWNDMPAVAGQSSSIALALASSLPFVPKAAYTGCLSGTNVQPVQFGNLKARAAHKIGLPLVGMTQDGGEDTRICTLDDAADHAFDSMESTVTR”: “soluble”; “MSERVCAVIVTYNRKALLRECLKAVLSQTRPPDHVLVVDNASTDGTPEMLQEEFPQVEVLRLPENQGGAGGFHEGMKRAYEQGVDWLWLMDDDTIPKAKALEALLEAARLPLDPRPRVLASRQLLPNGLPHPTTAFVNPTDPRHPFLWLRLRPRYRPIRWALFTSVLLHRSLVEEHGLPHKAFFIWEDDLEYTARALRRGLGLQVRDSEVIHKSASKPYISATTGENRLFYGVRNRIWVLRSPAFGPLGKAFLALQLLFGLLTYLAFHPSQKSLQEIGRALRAGLTTSPCLEHHHHHH”: “not soluble”.
